Measurements taken from patent US20250262210A1 (TRUSTEES OF COLUMBIA UNIVERSITY IN THE CITY OF NEW YORK, published 2025).
Positions count from the first letter of the chain named. Names and notes keep the numbering of the source.

What was measured:
[1] = target: AXL (human, UniProt P30530 26-894, limits assumed); assay: IP/MS, U87 cells (summary of Example 1)
Experimental: (§1) Lysates were immunoprecipitated with FLAG affinity matrix and eluted with FLAG peptide. […] Protein gel slices were excised and in-gel digestion performed as previously described (83), with minor modifications. Gel slices were washed with 1:1 A cetonitrile and 100 mM ammonium bicarbonate for 30 min then dehydrated with 100% acetonitrile for 10 min until shrunk. The excess acetonitrile was then removed and the slices dried in speed-vacuum at room temperature for 10 min. Gel slices were reduced with 5 mM DTT for 30 min at 56° C. in an air thermostat, cooled down to room temperature, and alkylated with 11 mM IAA for 30 min with no light. Gel slices were then washed with 100 mM of ammonium bicarbonate and 100% acetonitrile for 10 min each. Excess acetonitrile was removed and dried in a speed-vacuum for 10 min at room temperature and the gel slices were re-hydrated in a solution of 25 ng/μl trypsin in 50 mM ammonium bicarbonate for 30 min on ice and digested overnight at 37° C. in an air thermostat. Digested peptides were collected and further extracted from gel slices in extraction buffer (1:2 ratio by volume of 5% formic acid:acetonitrile) at high speed, shaking in an air thermostat. […] The following modifications were used for protein identification and quantification: oxidation of methionine (M), acetylation of the protein N-terminus, and deamination for asparagine or glutamine (NQ).

[2] = target: T1, EGFR (human, UniProt P00533 25-1210); assay: IP/MS, U87 cells (summary of Example 1)
T1 construct: also called epidermal growth factor receptor
Experimental: as §1

[3] = target: DMXL2 (human, UniProt Q8TDJ6 1-3036, limits assumed); assay: IP/MS, LZTR1 R810W-FLAG, U87
Procedure, shortened: (§2)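 Read-out: spectral counts from LC-MS/MS (Orbitrap Fusion) after MaxQuant identification. Variable modifications were Met oxidation, protein N-terminal acetylation and N/Q deamidation.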

[4] = target: T2, RNF123 (human, UniProt Q5XPI4 2-1314, limits assumed); assay: IP/MS, LZTR1 R810W-FLAG, U87
T2 sequence (looked up): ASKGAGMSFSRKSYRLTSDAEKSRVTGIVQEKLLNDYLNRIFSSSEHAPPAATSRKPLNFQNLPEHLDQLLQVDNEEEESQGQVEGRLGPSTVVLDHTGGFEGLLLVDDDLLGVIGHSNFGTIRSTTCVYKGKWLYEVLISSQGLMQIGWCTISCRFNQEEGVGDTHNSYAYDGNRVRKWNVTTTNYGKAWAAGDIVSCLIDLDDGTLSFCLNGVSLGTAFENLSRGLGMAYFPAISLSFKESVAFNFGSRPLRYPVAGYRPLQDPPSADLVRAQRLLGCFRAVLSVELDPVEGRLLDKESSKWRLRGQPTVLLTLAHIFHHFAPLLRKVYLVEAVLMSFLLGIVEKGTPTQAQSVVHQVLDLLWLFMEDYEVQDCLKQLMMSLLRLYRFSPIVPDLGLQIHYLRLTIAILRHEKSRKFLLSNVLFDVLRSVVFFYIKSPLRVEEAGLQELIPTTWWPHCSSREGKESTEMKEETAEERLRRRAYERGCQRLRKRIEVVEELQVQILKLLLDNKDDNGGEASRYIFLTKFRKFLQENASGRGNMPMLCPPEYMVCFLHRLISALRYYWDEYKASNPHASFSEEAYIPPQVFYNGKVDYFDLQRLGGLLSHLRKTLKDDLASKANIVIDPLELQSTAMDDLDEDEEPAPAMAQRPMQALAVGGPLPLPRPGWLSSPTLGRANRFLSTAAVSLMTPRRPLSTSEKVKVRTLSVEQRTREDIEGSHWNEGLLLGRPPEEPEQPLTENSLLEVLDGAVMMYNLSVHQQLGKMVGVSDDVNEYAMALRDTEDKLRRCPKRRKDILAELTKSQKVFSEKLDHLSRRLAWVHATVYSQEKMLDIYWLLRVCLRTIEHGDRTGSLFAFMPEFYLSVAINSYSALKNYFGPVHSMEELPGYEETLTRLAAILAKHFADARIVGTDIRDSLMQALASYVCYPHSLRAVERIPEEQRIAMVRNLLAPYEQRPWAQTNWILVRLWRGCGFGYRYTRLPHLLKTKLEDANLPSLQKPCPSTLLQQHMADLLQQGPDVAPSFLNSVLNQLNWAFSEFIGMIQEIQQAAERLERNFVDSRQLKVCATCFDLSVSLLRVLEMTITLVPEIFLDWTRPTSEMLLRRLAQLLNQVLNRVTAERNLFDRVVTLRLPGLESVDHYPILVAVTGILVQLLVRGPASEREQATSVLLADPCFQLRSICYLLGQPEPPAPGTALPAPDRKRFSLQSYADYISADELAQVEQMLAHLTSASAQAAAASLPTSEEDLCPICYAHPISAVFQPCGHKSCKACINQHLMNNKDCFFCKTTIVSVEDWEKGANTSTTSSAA
Procedure, shortened: as §2

[5] = target: TUBGCP2 (human, UniProt Q9BSJ2 1-902, limits assumed); assay: IP/MS, LZTR1 R810W-FLAG, U87
Procedure, shortened: as §2

[6] = target: SKIV2L (human, UniProt Q15477 1-1246); assay: IP/MS, LZTR1 R810W-FLAG, U87
Procedure, shortened: as §2

Measured: binding result

SKIV2L, sequence (Q15477 whole entry): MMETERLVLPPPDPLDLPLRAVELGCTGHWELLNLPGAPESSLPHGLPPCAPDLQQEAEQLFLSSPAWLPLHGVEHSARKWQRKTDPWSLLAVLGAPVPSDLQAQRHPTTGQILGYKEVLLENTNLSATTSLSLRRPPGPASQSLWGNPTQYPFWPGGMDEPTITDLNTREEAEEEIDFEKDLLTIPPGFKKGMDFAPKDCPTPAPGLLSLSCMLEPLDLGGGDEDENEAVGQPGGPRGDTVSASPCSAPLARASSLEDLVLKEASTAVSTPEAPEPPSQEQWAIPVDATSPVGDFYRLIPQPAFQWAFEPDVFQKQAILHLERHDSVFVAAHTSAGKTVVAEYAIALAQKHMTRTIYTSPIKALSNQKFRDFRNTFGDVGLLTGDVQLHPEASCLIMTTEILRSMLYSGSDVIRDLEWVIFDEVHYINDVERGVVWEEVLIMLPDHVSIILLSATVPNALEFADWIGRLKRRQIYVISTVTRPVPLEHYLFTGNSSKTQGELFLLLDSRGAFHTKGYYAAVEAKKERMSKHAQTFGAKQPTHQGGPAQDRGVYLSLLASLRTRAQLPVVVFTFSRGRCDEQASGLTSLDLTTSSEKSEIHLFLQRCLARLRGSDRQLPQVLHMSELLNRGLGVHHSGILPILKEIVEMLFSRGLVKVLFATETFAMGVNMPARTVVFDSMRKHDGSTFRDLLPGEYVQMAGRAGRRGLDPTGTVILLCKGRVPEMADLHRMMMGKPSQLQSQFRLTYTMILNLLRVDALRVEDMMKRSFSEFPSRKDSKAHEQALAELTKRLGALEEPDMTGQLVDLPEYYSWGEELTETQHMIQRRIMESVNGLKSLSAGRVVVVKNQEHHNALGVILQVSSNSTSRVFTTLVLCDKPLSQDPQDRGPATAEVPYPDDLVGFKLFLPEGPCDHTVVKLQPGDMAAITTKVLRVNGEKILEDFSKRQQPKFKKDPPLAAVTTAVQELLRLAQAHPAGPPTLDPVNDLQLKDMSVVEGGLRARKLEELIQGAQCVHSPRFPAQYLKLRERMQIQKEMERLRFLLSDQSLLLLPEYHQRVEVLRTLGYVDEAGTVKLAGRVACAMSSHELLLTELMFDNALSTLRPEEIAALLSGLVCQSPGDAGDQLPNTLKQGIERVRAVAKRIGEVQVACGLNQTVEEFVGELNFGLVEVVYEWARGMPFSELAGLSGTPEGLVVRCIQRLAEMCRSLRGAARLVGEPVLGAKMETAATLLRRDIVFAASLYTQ
DMXL2, sequence (Q8TDJ6 whole entry, the tested form may be a part): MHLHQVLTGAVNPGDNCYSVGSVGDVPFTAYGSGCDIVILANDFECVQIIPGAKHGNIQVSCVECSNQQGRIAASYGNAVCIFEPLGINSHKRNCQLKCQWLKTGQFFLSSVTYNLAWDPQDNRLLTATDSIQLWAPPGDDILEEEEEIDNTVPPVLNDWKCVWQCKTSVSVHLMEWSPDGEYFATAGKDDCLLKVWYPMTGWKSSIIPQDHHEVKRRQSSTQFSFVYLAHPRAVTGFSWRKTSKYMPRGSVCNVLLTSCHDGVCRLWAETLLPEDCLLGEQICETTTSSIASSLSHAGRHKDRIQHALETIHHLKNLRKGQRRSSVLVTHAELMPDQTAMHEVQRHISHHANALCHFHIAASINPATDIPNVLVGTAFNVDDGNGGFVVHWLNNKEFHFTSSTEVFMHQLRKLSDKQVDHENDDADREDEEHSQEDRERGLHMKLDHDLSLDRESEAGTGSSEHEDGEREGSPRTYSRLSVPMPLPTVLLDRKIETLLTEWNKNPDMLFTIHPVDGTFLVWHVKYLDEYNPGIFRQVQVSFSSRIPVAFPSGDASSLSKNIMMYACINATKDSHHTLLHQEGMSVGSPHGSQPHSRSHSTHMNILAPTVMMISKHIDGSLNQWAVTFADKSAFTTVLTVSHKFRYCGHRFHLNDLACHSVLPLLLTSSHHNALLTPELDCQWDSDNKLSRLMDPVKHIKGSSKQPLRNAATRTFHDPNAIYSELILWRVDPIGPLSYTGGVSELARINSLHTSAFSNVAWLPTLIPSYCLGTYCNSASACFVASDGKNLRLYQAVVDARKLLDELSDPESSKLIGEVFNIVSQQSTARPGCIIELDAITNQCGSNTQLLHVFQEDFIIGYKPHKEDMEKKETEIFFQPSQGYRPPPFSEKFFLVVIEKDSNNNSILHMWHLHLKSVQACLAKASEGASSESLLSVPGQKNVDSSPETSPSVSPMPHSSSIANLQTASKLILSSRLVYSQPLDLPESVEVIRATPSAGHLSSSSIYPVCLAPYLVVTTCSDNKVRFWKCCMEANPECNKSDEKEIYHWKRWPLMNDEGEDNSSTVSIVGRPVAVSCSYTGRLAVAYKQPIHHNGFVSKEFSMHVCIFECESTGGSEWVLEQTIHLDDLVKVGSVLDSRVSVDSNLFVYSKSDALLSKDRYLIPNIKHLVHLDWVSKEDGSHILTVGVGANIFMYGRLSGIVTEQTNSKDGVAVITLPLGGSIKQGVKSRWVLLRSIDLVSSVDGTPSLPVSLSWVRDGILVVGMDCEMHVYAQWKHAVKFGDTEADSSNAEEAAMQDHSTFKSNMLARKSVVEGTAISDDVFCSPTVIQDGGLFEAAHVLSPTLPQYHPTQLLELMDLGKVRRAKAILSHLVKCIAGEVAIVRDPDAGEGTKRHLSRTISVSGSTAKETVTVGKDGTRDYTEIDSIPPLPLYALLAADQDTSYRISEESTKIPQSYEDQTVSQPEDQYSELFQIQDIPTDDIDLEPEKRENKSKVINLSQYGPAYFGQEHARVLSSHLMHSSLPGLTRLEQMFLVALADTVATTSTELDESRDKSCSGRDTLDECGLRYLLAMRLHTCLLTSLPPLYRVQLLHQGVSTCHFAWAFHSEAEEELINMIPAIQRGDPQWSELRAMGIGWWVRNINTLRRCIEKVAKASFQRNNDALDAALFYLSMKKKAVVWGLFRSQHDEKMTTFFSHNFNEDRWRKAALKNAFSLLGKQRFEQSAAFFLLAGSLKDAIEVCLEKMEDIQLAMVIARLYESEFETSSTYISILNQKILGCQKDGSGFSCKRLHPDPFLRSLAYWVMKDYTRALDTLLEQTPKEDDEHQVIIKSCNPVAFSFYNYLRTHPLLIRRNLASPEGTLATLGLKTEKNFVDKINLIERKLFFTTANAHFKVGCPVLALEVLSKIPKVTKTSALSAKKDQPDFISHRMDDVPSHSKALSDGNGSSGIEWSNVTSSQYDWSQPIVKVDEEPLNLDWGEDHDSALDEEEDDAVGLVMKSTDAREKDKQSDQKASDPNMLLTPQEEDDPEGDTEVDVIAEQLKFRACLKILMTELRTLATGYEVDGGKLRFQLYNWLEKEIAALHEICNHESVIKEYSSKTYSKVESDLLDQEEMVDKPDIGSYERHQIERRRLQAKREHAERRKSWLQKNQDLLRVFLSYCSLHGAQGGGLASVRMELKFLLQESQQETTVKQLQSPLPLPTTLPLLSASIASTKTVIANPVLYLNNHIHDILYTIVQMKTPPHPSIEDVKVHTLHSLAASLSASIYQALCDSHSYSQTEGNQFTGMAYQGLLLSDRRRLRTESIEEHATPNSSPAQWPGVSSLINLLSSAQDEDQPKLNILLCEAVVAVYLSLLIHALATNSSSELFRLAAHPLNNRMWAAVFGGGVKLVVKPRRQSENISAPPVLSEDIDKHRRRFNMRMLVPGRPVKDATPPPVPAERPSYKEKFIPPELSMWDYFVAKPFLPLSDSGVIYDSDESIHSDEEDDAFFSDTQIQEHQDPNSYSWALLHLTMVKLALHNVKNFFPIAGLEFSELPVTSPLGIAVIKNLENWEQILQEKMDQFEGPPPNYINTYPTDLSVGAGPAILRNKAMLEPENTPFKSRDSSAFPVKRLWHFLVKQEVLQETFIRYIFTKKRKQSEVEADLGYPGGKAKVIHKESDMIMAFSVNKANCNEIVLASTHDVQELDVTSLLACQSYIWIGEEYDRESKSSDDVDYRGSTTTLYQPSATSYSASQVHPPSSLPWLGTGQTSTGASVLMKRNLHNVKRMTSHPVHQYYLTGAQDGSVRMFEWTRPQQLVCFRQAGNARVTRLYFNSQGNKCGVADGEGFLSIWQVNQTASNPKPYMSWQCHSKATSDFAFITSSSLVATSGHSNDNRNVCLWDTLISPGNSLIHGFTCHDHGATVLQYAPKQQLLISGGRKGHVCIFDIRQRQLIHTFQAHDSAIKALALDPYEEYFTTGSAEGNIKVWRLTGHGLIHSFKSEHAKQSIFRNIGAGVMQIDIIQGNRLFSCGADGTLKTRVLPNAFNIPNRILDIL
TUBGCP2, sequence (Q9BSJ2 whole entry): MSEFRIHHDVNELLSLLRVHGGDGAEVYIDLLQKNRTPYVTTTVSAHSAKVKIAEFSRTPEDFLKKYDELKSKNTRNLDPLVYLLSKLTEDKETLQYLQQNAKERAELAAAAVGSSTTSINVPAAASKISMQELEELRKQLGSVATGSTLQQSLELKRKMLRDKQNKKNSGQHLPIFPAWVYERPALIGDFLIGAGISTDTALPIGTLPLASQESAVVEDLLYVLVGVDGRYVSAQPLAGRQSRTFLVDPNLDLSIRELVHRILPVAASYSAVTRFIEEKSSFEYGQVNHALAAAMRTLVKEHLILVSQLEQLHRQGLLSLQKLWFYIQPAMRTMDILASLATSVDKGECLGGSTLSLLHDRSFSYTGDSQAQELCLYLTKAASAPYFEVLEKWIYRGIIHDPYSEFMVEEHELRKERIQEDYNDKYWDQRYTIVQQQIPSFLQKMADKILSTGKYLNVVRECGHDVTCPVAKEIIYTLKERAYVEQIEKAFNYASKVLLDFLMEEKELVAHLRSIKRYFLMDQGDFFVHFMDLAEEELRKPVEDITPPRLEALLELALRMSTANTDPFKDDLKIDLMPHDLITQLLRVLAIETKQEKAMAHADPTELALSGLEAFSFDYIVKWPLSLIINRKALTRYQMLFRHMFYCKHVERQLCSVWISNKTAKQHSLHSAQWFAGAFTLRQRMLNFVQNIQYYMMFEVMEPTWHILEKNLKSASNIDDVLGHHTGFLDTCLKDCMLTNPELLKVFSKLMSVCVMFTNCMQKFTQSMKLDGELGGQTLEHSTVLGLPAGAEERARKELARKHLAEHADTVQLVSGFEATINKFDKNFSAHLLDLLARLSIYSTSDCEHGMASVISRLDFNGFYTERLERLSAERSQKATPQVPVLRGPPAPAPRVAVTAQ

B1: LZTR1-FLAG (other, human, UniProt Q8N653 1-840, looked up)
chain: MAGPGSTGGQIGAAALAGGARSKVAPSVDFDHSCSDSVEYLTLNFGPFETVHRWRRLPPCDEFVGARRSKHTVVAYKDAIYVFGGDNGKTMLNDLLRFDVKDCSWCRAFTTGTPPAPRYHHSAVVYGSSMFVFGGYTGDIYSNSNLKNKNDLFEYKFATGQWTEWKIEGRLPVARSAHGATVYSDKLWIFAGYDGNARLNDMWTIGLQDRELTCWEEVAQSGEIPPSCCNFPVAVCRDKMFVFSGQSGAKITNNLFQFEFKDKTWTRIPTEHLLRGSPPPPQRRYGHTMVAFDRHLYVFGGAADNTLPNELHCYDVDFQTWEVVQPSSDSEVGGAEVPERACASEEVPTLTYEERVGFKKSRDVFGLDFGTTSAKQPTQPASELPSGRLFHAAAVISDAMYIFGGTVDNNIRSGEMYRFQFSCYPKCTLHEDYGRLWESRQFCDVEFVLGEKEECVQGHVAIVTARSRWLRRKITQARERLAQKLEQEAAPVPREAPGVAAGGARPPLLHVAIREAEARPFEVLMQFLYTDKIKYPRKGHVEDVLLIMDVYKLALSFQLCRLEQLCRQYIEASVDLQNVLVVCESAARLQLSQLKEHCLNFVVKESHFNQVIMMKEFERLSSPLIVEIVRRKQQPPPRTPLDQPVDIGTSLIQDMKAYLEGAGAEFCDITLLLDGHPRPAHKAILAARSSYFEAMFRSFMPEDGQVNISIGEMVPSRQAFESMLRYIYYGEVNMPPEDSLYLFAAPYYYGFYNNRLQAYCKQNLEMNVTVQNVLQILEAADKTQALDMKRHCLHIIVHQFTKVSKLPTLRSLSQQLLLDIIDSLASHISDKQCAELGADI
notes: Expressed in HEK 293T, HeLa or U87 cells; used as cell lysate; also called LZTR1 wild type-FLAG; LZTR1 WT; not shown: FLAG tag at the C-terminus
binds: [1] | [2]

B2: LZTR1 R810W-FLAG (other, human, UniProt Q8N653 1-840, looked up)
chain: B1 chain with R810W
notes: Stably expressed in U87 cells by lentivirus; also called LZTR1-FLAG-R810W; LZTR1 RW; not shown: FLAG tag
binds: [3] | [4] | [5] | [6]
